Publication PMC5760199, “Structural insights into the assembly and polyA signal recognition mechanism of the human CPSF complex”

What was measured:
[1] = molecular target: CPSF160FL;WDR33 M1-K410 R49A/K50A;CPSF30 ZF1-3 (Homo sapiens;Homo sapiens;Homo sapiens, UniProt Q10570;Q9C0J8;O95639-3 1-1443;1-410;1-117, |R49A;K50A|); experiment: fluorescence polarization; 20 mM Tris pH 7.5, 150 mM NaCl, 1 mM DTT, 0.05% Tween 20, 25 C, 0.1 nM labelled RNA; settings: protein: recombinant;recombinant;recombinant; tags: His6 (438B vector); copies: 1;1;1; label: 5' Atto532
Sequence of CPSF160FL;WDR33 M1-K410 R49A/K50A;CPSF30 ZF1-3 (Q10570 whole entry, chain 1 of 3): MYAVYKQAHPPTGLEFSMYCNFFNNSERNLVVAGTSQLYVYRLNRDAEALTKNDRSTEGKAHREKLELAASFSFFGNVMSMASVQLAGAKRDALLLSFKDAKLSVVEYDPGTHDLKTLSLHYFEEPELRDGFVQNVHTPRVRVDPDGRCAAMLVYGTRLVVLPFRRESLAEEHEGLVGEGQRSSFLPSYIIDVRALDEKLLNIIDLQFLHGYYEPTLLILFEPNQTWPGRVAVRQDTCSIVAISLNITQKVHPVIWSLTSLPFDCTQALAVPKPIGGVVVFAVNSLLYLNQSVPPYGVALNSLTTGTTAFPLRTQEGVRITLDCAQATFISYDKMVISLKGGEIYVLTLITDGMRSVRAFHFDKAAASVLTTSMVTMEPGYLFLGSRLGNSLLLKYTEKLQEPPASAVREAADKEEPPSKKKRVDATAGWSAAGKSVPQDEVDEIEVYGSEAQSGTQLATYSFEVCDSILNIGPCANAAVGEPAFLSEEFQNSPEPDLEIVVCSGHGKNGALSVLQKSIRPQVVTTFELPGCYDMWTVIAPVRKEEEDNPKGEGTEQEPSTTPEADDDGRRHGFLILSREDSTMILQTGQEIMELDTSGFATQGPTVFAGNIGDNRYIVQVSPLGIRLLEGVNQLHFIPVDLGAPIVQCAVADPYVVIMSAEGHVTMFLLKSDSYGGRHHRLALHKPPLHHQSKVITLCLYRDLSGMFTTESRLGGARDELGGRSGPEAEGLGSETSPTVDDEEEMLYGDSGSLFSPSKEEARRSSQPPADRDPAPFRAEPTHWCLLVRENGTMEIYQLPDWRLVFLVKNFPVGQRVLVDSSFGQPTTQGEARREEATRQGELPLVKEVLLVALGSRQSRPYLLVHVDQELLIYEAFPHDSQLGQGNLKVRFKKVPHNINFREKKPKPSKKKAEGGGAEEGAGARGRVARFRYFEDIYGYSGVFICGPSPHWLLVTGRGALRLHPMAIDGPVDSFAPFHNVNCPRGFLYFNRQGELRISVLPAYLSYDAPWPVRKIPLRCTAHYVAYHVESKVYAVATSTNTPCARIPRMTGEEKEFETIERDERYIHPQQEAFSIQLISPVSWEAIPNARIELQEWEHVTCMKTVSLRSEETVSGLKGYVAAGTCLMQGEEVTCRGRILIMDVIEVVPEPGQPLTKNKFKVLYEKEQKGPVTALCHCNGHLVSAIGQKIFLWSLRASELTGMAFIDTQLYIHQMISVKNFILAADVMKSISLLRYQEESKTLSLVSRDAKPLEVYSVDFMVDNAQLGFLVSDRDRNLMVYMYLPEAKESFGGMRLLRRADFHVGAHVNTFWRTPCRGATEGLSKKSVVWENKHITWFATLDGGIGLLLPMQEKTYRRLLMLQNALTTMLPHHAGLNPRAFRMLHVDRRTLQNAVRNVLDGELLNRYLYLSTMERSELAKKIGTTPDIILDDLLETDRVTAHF
Sequence of CPSF160FL;WDR33 M1-K410 R49A/K50A;CPSF30 ZF1-3 (Q9C0J8 1-410 R49A/K50A, chain 2 of 3): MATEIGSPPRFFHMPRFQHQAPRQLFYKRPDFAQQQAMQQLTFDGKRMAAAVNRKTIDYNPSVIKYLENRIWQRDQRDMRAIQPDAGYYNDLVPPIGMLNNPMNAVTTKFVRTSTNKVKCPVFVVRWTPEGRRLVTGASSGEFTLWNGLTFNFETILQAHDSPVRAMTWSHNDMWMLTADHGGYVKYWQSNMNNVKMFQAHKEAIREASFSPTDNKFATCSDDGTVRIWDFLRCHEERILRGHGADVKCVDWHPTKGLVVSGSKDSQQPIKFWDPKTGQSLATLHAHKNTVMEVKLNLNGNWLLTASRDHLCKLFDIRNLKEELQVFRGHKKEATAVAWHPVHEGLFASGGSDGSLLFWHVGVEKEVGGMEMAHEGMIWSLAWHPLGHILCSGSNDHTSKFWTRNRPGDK
Sequence of CPSF160FL;WDR33 M1-K410 R49A/K50A;CPSF30 ZF1-3 (O95639 1-117, chain 3 of 3): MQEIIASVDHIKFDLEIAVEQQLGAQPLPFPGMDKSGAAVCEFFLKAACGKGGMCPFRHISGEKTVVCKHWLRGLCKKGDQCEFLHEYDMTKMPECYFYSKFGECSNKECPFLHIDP

[2] = molecular target: CPSF160FL;WDR33 M1-K410;CPSF30 ZF1-5;Fip1CD (Homo sapiens;Homo sapiens;Homo …, UniProt Q10570;Q9C0J8;O95639-3;Q6UN15-4 1-1443;1-410;1-169;130-195, |||); experiment: as above; settings: protein: recombinant;recombinant;recombinant;recombinant; tags: His6 (438B vector; Ni-NTA and Streptactin purified);;; copies: 1;1;1;1; label: 5' Atto532
Sequence of CPSF160FL;WDR33 M1-K410;CPSF30 ZF1-5;Fip1CD (Q10570 whole entry, chain 1 of 4): as the sequence (Q10570 whole entry, chain 1 of 3) above
Sequence of CPSF160FL;WDR33 M1-K410;CPSF30 ZF1-5;Fip1CD (Q9C0J8 1-410, chain 2 of 4): as the sequence (Q9C0J8 1-410 R49A/K50A, chain 2 of 3) above, with A49R, A50K counted along it
Sequence of CPSF160FL;WDR33 M1-K410;CPSF30 ZF1-5;Fip1CD (O95639 1-169, chain 3 of 4): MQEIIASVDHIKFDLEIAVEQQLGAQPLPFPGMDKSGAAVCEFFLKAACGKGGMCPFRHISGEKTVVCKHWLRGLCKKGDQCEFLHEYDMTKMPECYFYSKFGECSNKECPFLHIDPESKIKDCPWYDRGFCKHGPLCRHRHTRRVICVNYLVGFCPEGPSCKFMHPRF
Sequence of CPSF160FL;WDR33 M1-K410;CPSF30 ZF1-5;Fip1CD (Q6UN15 145-210, chain 4 of 4): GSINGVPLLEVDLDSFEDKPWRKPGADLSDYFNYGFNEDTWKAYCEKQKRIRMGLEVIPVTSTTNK

[3] = molecular target: CPSF160FL;WDR33 M1-K410 K46A/R47A;CPSF30 ZF1-3 (Homo sapiens;Homo sapiens;Homo sapiens, UniProt Q10570;Q9C0J8;O95639-3 1-1443;1-410;1-117, |K46A;R47A|); experiment: as above; settings: protein: recombinant;recombinant;recombinant; tags: His6 (438B vector); copies: 1;1;1; label: 5' Atto532
Sequence of CPSF160FL;WDR33 M1-K410 K46A/R47A;CPSF30 ZF1-3 (Q10570 whole entry, chain 1 of 3): as the sequence (Q10570 whole entry, chain 1 of 3) above
Sequence of CPSF160FL;WDR33 M1-K410 K46A/R47A;CPSF30 ZF1-3 (Q9C0J8 1-410 K46A/R47A, chain 2 of 3): as the sequence (Q9C0J8 1-410 R49A/K50A, chain 2 of 3) above, with K46A, R47A, A49R, A50K counted along it
Sequence of CPSF160FL;WDR33 M1-K410 K46A/R47A;CPSF30 ZF1-3 (O95639 1-117, stated change not applied, chain 3 of 3): as the sequence (O95639 1-117, chain 3 of 3) above

[4] = molecular target: CPSF160FL;WDR33 M1-K410;CPSF30 ZF1-3 (Homo sapiens;Homo sapiens;Homo sapiens, UniProt Q10570;Q9C0J8;O95639-3 1-1443;1-410;1-117, ||); experiment: as above; settings: protein: recombinant;recombinant;recombinant; tags: His6 (438B vector; Ni-NTA and Streptactin purified);; copies: 1;1;1; label: 5' Atto532
Sequence of CPSF160FL;WDR33 M1-K410;CPSF30 ZF1-3 (Q10570 whole entry, chain 1 of 3): as the sequence (Q10570 whole entry, chain 1 of 3) above
Sequence of CPSF160FL;WDR33 M1-K410;CPSF30 ZF1-3 (Q9C0J8 1-410, chain 2 of 3): as the sequence (Q9C0J8 1-410 R49A/K50A, chain 2 of 3) above, with A49R, A50K counted along it
Sequence of CPSF160FL;WDR33 M1-K410;CPSF30 ZF1-3 (O95639 1-117, chain 3 of 3): as the sequence (O95639 1-117, chain 3 of 3) above

[5] = molecular target: T1, CPSF160FL;WDR33 M1-K410;CPSF30FL;Fip1FL (Homo sapiens;Homo sapiens;Homo …, UniProt Q10570;Q9C0J8;O95639-3;Q6UN15-4 1-1443;1-410;1-243;1-378, |||); experiment: fluorescence polarization; error 0.09 in text, 0.90 in Table 2; 20 mM Tris pH 7.5, 150 mM NaCl, 1 mM DTT, 0.05% Tween 20, 25 C, 0.1 nM labelled RNA; settings: protein: recombinant;recombinant;recombinant;recombinant; tags: His6 (438B vector; Ni-NTA and Streptactin purified);;; copies: 1;1;1;1; label: 5' Atto532
T1 sequence (Q10570 whole entry, chain 1 of 4): as the sequence (Q10570 whole entry, chain 1 of 3) above
T1 sequence (Q9C0J8 1-410, chain 2 of 4): as the sequence (Q9C0J8 1-410 R49A/K50A, chain 2 of 3) above, with A49R, A50K counted along it
T1 sequence (O95639 other isoform, or with tags, fused parts or gaps |||, chain 3 of 4): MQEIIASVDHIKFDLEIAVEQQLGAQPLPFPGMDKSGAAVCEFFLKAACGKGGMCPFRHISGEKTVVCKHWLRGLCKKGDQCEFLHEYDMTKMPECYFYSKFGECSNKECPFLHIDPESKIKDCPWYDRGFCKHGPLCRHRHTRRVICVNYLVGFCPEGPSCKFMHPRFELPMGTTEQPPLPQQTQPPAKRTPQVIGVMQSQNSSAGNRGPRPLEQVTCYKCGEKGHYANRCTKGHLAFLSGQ
T1 sequence (Q6UN15 other isoform, or with tags, fused parts or gaps |||, chain 4 of 4): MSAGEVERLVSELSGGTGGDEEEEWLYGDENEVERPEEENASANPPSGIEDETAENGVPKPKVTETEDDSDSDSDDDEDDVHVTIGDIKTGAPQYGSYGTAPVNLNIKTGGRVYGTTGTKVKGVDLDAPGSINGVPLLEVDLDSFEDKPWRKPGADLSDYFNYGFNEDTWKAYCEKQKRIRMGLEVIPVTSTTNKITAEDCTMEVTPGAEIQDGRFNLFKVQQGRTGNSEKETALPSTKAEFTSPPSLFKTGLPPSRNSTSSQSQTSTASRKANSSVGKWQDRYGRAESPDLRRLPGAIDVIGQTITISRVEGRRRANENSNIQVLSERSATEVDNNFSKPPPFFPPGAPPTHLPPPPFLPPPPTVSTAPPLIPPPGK

[6] = molecular target: T1, CPSF160FL;WDR33 M1-K410;CPSF30FL;Fip1FL; experiment: fluorescence polarization; two repeats; 20 mM Tris pH 7.5, 150 mM NaCl, 1 mM DTT, 0.05% Tween 20, 25 C, 0.1 nM labelled RNA; settings: protein: recombinant;recombinant;recombinant;recombinant; tags: His6 (438B vector; Ni-NTA and Streptactin purified);;; copies: 1;1;1;1; label: 5' Atto532

| Binder | Kd [1] [nM] | Kd [2] [nM] | Kd [3] [nM] | Kd [4] [nM] | Kd [5] [nM] | Kd [6] [nM] |
| --- | --- | --- | --- | --- | --- | --- |
| CACACAAUAAAGGCAA (ssRNA) [L3 PAS RNA wild-type (AAUAAA)] | 2.42 ± 0.66 | 0.11 ± 0.03 | 7.78 ± 0.78 | < 0.1 | 0.65 ± 0.09 | – |
| CACACAAGAAAGGCAA (ssRNA) [L3 PAS RNA mutant (AAGAAA)] | – | 70 ± 6 | – | 43 ± 2 | – | 120 ± 23 |
